Time until yeast cells stained blue, relative β-galactosidase activity and relative targeting frequency (TG^r +G418^r /G418^r colonies) data for nine substances are collected here from patent publication US6057104.

Assay [1] addresses MmRad51, full length, fused to the GAL4 DNA-binding domain (the "bait") (mouse). Briefly: yeast two-hybrid in HF7c cells, full length MmRad51 bait, X-gal staining.
Assay [2] shares this target. The experiment in a line: yeast two-hybrid in HF7c cells, full length MmRad51 bait; relative to full length MmRad51 prey as 100%.
For assay [3] the target is unchanged. Briefly: yeast two-hybrid in HF7c cells, full length MmRad51 bait; relative to the positive control.
Assay [4] shares this target. The experiment in a line: yeast two-hybrid in HF7c cells, full length MmRad51 bait; the reference of the scale.
For assay [5], the target named is mammalian Rad51 (MmRad51), wild-type protein of the cells (mouse).
Assay [6] concerns the target MmRad51, full length, fused to the GAL4 DNA-binding domain (the "bait") (mouse). The experiment in a line: yeast two-hybrid against full length MmRad51.

For the substance “MmRad51 deletion TR1-43, as two-hybrid prey”, the time until yeast cells stained blue in assay [1] was < 5 min. This substance returned a relative β-galactosidase activity in assay [2] of 43%. In turn, “MmRad51 deletion TR1-93, as two-hybrid prey” yielded a time until yeast cells stained blue in assay [1] of 30 min. This substance also yielded a relative β-galactosidase activity in assay [2] of 4%. Substance “MmRad51 deletion TR1-131, as two-hybrid prey” had a relative β-galactosidase activity in assay [3] of 11%.

For “MmRad51 deletion TR1-175, as two-hybrid prey”, in assay [3], the relative β-galactosidase activity was 9%. As to “MmRad51 deletion TR43-339, as two-hybrid prey”, the relative β-galactosidase activity in assay [2] was found to be 1.

The substance “MmRad51 deletion TR131-339, as two-hybrid prey” showed a relative β-galactosidase activity in assay [2] of 1. The substance “MmRad51, full length, as two-hybrid prey” returned a relative β-galactosidase activity in assay [4] of 100%. “altered Rad51 product encoded by rad51K-A134, expressed in ES cells” gave a relative targeting frequency (TG^r +G418^r /G418^r colonies) at HPRT in ES cells, IVH-tk as 100% in assay [5] of 54%. In assay [6], “rad51K-A134 product, as tested in the yeast two-hybrid system” displayed a relative β-galactosidase activity of 90%.
